The values below come from US20170204402A1 (published 2017).

This experiment concerns the target T1, ACM335-FKBP hybrid protein (from plasmid pCm-ACM335-FKBP) (Bordetella pertussis, UniProt P62942 2-108).
T1 construct: also called ACM-FKBP
Nature of the experiment: HSACH in vivo complementation in E. coli DHM1 (data not shown).

B1: 3K1K-CaM fusion (VHH)
VHH: QVQLVESGGALVQPGGSLRLSCAASGFPVNRYSMRWYRQAPGKEREWVAGMSSAGDRSSYEDSVKGRFTISRDDARNTVYLQMNSLKPEDTAVYYCNVNVGFEYWGQGTQVTVSS
As for B1, the binding result is listed as “no binding”.
